Legend:
[1] = molecular target: T1, HMGS with 12 SH3 peptide ligands recombined to the C-terminus, P54839
T1 sequence (P54839 whole entry, looked up): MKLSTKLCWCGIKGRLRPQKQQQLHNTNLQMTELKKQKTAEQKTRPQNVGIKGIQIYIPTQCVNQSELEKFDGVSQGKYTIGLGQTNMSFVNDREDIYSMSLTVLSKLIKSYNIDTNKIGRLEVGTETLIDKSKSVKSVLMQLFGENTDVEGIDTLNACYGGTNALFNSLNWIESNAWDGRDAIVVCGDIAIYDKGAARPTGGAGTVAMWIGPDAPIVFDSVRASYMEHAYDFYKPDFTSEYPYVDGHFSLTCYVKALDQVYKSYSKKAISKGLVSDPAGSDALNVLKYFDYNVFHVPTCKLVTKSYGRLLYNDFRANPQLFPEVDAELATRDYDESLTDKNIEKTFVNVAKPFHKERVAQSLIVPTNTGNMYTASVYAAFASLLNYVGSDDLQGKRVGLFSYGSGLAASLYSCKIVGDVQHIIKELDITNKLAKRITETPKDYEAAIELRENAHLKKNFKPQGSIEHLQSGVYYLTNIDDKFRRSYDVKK

[2] = molecular target: T2, HMGS with 6 SH3 peptide ligands recombined to the C-terminus, P54839
T2 sequence (P54839 whole entry, looked up): T1 sequence (P54839 whole entry, looked up)

B1: HMGR with an N-terminal SH3 domain (protein)
chain: AEYVRALFDFNGNDEEDLPFKKGDILRIRDKPEEQWWNAEDSEGKRGMIPVPYVEKYRVLTNKTVISGSKVKSLSSAQSSSSGPSSSSEEDDSRDIESLDKKIRPLEELEALLSSGNTKQLKNKEVAALVIHGKLPLYALEKKLGDTTRAVAVRRKALSILAEAPVLASDRLPYKNYDYDRVFGACCENVIGYMPLPVGVIGPLVIDGTSYHIPMATTEGCLVASAMRGCKAINAGGGATTVLTKDGMTRGPVVRFPTLKRSGACKIWLDSEEGQNAIKKAFNSTSRFARLQHIQTCLAGDLLFMRFRTTTGDAMGMNMISKGVEYSLKQMVEEYGWEDMEVVSVSGNYCTDKKPAAINWIEGRGKSVVAEATIPGDVVRKVLKSDVSALVELNIAKNLVGSAMAGSVGGFNAHAANLVTAVFLALGQDPAQNVESSNCITLMKEVDGDLRISVSMPSIEVGTIGGGTVLEPQGAMLDLLGVRGPHATAPGTNARQLARIVACAVLAGELSLCAALAAGHLVQSHMTHNRKPAEPTKPNNLDATDINRLKDGSVTCIKS
- mevalonate production in E. coli, improvement [1]: reduced somewhat (to 7-fold) when the number of possible interactions was further increased
- mevalonate production in E. coli, improvement [2]: mevalonate production reached a maximum ˜10-fold improvement with 6 possible interactions

Reference: US20110008829
